Results reported in patent US20040127407A1 (GREENVILLE HOSPITAL SYSTEM, published 2004).
Blank lines part the entries; values can stand above or below the binder they belong to.

Molecular target: T1, prolactin receptor (PRLR) on T-47D human breast cancer cells (human, UniProt P16471 25-622)
T1 construct: whole, on cells; Endogenous receptor on T-47D cells; also called hPRLR; PRL receptor
T1 sequence (looked up): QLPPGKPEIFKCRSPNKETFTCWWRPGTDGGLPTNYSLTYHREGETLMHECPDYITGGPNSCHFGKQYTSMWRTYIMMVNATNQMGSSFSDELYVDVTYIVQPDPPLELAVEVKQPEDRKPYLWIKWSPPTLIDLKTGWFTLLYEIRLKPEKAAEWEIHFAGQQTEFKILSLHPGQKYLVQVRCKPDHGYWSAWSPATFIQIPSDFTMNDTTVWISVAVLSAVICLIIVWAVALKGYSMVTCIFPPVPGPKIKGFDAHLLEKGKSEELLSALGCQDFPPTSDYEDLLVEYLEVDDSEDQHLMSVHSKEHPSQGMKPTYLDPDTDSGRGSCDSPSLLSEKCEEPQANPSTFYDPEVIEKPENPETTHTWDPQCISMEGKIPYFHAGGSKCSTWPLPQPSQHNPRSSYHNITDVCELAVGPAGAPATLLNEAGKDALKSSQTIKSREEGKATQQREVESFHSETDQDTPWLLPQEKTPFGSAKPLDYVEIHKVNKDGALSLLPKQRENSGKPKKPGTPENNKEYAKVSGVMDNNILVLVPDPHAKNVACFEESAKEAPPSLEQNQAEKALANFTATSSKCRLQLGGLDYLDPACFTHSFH
Assay: competitive radioreceptor binding assay on T-47D cells, 125I-hPRL tracer
Procedure: Radioreceptor binding assays were performed as previously described (Chen et al., 1991; Appendix B). Briefly, T-47D cells will be grown in six-well tissue culture plates until 90% confluent (˜10⁵ cells/well). Monolayers of cells were starved in serum-free RPMI-1640 medium for 2h. The cells were then incubated at room temperature for two hours in serum-free RPMI-1640 containing 8×10⁴ cpm ¹²⁵I hPRL (Specific Activity=30 μCi/μg; NEN Dupont, Boston, Mass.) with or without hPRL, hPRL-G129R, endostatin, or GEFP at various concentrations. Cells were then washed three times in serum-free RPMI-1640 and solubilized in 0.5 ml of 0.1N NaOH/1% SDS, and the bound radioactivity was determined by a Gamma counter (ICN Biomedical, model 4/600plus; Costa Mesa, Calif.).

- binding result: binds
B1: hPRL-G129R (ligand)
chain: MLPICPGGAARCQVTLRDLFDRAVVLSHYIHNLSSEMFSEFDKRYTHGRGFITKAINSCHTSSLATPEDKEQAQQMNQKDFLSLIVSILRSWNEPLYHLVTEVRGMQEAPEAILSKAVEIEEQTKRLLERMELIVSQVHPETKENEIYPVWSGLPSLQMADEESRLSAYYNLLHCLRRDSHKIDNYLKLLKCRIIHNNNC
notes: also called hPRLA; prolactin antagonist

- binding result: binds
B2: human prolactin (hPRL) (ligand, UniProt P01236 29-227, looked up)
chain: LPICPGGAARCQVTLRDLFDRAVVLSHYIHNLSSEMFSEFDKRYTHGRGFITKAINSCHTSSLATPEDKEQAQQMNQKDFLSLIVSILRSWNEPLYHLVTEVRGMQEAPEAILSKAVEIEEQTKRLLEGMELIVSQVHPETKENEIYPVWSGLPSLQMADEESRLSAYYNLLHCLRRDSHKIDNYLKLLKCRIIHNNNC

- binding result: binds
B3: G129R-endostatin fusion protein (GEFP) (other)
chain: MLPICPGGAARCQVTLRDLFDRAVVLSHYIHNLSSEMFSEFDKRYTHGRGFITKAINSCHTSSLATPEDKEQAQQMNQKDFLSLIVSILRSWNEPLYHLVTEVRGMQEAPEAILSKAVEIEEQTKRLLERMELIVSQVHPETKENEIYPVWSGLPSLQMADEESRLSAYYNLLHCLRRDSHKIDNYLKLLKCRIIHNNNCGSHSHRDFQPVLHLVALNSPLSGGMRGIRGADFQCFQQARAVGLAGTFRAFLSSRLQDLYSIVRRADRAAVPIVNLKDELLFPSWEALFSGSEGPLKPGARIFSFDGKDVLRHPTWPQKSVWHGSDPNGRRLTESYCETWRTEAPSATGQASSLLGGRLLGQSAASCHHAYIVLCIENSFMTASK
notes: The C-terminus of G129R is fused to the N-terminus of endostatin; E. coli product with an extra Met at the N-terminus; also called hPRL-G129R-Endo fusion protein
